Like-named read-outs stand apart in the source and are kept apart here.
B1: recombinant human CSF-1 (ligand, UniProt P09603 33-190, looked up)
chain: EEVSEYCSHMIGSGHLQSLQRLIDSQMETSCQITFEFVDQEQLKDPVCYLKKAFLLVQDIMEDTMRFRDNTPNAIAIVQLQELSLRLKSCFTKDYEEHDKACVRTFYETPLQLLEKVKNVFNETKNLLDKDWNIFSKNCNNSFAECSSQDVVTKPDCN
notes: also called hCSF-1
B2: anti-c-fms IgG2 clone 1.2 SM (somatic mutation cured) (antibody, V domains shown)
VH: QVQLVQSGAEVKKPGASVKVSCKASGYTFTSYGISWVRQAPGQGLEWMGWISAYNGNTNYAQKLQGRVTMTTDTSTSTAYMELRSLRSDDTAVYYCARESWFGEVFFDYWGQGTLVTVSS
VL: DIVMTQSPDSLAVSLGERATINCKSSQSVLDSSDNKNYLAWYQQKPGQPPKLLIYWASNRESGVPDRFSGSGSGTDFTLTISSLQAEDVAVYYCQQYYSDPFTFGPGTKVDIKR
notes: Recombinant IgG2 kappa; light chain Ser-78 reverted to germline Thr; also called 1.2.1 SM; antibody 1.2 SM
B3: anti-c-fms IgG2 clone 1.109 SM (somatic mutation cured) (antibody, V domains shown)
VH: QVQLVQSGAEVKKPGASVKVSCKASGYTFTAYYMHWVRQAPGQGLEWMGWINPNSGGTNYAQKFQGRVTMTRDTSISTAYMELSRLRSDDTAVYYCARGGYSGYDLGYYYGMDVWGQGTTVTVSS
VL: DIQMTQSPSSLSASVGDRVTITCQASQDISNFLDWYQQKPGKAPKLLIYDASDLDPGVPSRFSGSGSGTDFTFTISSLQPEDIATYYCQQYVSLPLTFGGGTKVEIKR
notes: Recombinant IgG2 kappa; light chain Asn-28 to Asp and Asn-45 to Lys
B4: anti-c-fms hybridoma antibody 2.475 (antibody, IgG2, V domains shown)
VH: QVQLVESGGGVVQPGRSLRLSCAASGFTFISYGMHWVRQAPGKGLEWVAVIWYDGSNKYYADSVKGRFTISRDNSKNTLYLQMNSLRAEDTAVYYCADSSGDYYGMDVWGQGTTVTVSS
VL: DIQMIQSPSSLSASVGDRVTITCQASHDISNYLNWYQQKPGKAPKFLISDASNLETGVPSRFSGSGSGTDFTFTISSLQPEDIATYYCQQYDNLPLTFGGGTKVEIK
notes: Hybridoma IgG2 (cohort 2); also called 2.475.2
B5: anti-c-fms IgG2 clone 2.360 SM (somatic mutation cured) (antibody, V domains shown)
VH: QVQLVQSGAEVKKPGASVKVSCKVSGYTLTELSMHWVRQAPGKGLEWMGGFDPEDGETIYAQKFQGRVTMTEDTSTDTAYMELSSLRSEDTAVYYCATGVMITFGGVIVGHSYYGMDVWGQGTTVTVSS
VL: DIQMTQSPSSLSASVGDRVTITCRASQGINNYLAWYQQKPGKVPKLLIYVASTLQSGVPSRFSGSGSGTDFTLTISSLQPEDVATYYCQKYNSGPFTFGPGTKVDIKR
notes: Recombinant IgG2 kappa; heavy chain Val-79 to Ala, light chain Gln-45 to Lys
B6: anti-c-fms hybridoma antibody 2.360 (antibody, IgG2, V domains shown)
VH: QVQLVQSGAEVKKPGASVKVSCKVSGYTLTELSMHWVRQAPGKGLEWMGGFDPEDGETIYAQKFQGRVTMTEDTSTDTVYMELSSLRSEDTAVYYCATGVMITFGGVIVGHSYYGMDVWGQGTTVTVSS
VL: DIQMTQSPSSLSASVGDRVTITCRASQGINNYLAWYQQKPGKVPQLLIYVASTLQSGVPSRFSGSGSGTDFTLTISSLQPEDVATYYCQKYNSGPFTFGPGTKVDIK
notes: Hybridoma IgG2 (cohort 2)

Experiments:
[1] = target: T1, human c-fms, full length, on cells (human, UniProt P07333 20-972); test: saturation radioligand binding on AML-5 cells, 4 C; 125I-labelled hCSF-1, saturation binding, 4 C
T1 construct: whole, on cells; also called CSF-1R
T1 sequence (P07333 20-972): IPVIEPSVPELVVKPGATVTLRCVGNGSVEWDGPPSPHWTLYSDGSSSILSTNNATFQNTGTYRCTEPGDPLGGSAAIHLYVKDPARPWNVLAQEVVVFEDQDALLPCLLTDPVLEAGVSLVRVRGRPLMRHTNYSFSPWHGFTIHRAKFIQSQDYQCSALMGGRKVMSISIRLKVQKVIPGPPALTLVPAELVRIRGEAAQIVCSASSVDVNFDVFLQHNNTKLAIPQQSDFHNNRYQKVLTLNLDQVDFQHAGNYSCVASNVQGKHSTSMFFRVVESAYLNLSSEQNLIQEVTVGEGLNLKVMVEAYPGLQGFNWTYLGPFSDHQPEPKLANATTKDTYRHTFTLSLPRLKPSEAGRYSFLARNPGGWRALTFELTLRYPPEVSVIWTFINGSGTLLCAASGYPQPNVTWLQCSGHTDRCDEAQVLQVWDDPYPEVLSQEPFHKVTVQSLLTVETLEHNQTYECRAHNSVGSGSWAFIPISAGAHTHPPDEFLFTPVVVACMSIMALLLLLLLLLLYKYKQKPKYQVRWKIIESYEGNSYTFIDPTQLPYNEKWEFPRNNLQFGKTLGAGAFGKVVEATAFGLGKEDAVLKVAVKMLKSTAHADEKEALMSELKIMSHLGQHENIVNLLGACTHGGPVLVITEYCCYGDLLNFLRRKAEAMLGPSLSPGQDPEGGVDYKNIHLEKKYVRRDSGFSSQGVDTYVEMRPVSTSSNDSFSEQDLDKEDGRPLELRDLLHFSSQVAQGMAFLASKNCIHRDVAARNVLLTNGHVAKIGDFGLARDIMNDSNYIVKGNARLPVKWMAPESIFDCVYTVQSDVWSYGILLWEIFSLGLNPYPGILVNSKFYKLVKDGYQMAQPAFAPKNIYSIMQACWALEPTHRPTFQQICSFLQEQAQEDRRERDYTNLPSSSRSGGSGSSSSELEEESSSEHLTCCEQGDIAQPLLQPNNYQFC
Protocol: (§1) For the saturation binding assay, ¹²⁵I-hCSF-1 was serially diluted 2-fold, starting at a concentration of ˜1.7 nM and going out 12 wells to a concentration of ˜1.5 pM. Nonspecific binding was measured at a single concentration of ¹²⁵I-hCSF-1 (˜80 pM, in triplicate) in the presence of a 1,000-fold molar excess of unlabeled hCSF-1, and assumed to be a linear function of the concentration of radiolabeled hCSF-1 present.
(§2) Both assays were incubated at 4° C. on a miniorbital shaker for 4 hours, the length of time needed to reach equilibrium as determined in time course experiments. Two 60 μl aliquots of each incubation mixture were transferred to chilled 400 μl polyethylene centrifuge tubes containing 200 μl phthalate oil and spun for 1.5 minutes in a 4° C. tabletop microfuge (Sorvall,) at 9615×g to separate cell associated ¹²⁵I-hCSF-1 from free ¹²⁵I-hCSF-1. The oil tubes were cut, and each cell pellet and supernatant collected in individual 12×75 mm glass tubes and loaded on a COBRA gamma counter (Packard Instrument Company) for cpm measurements. Cpm from duplicate aliquots taken from each well were averaged for analysis.
(§3) Mean K₁ values from 2 experiments were reported (see, TABLE 13).

[2] = target: T1, human c-fms, full length, on cells; test: inhibition of 125I-hCSF-1 binding to AML-5 cells, 4 C; unlabeled hCSF-1, competitive inhibition of 125I-hCSF-1, 4 C
Protocol: (§4) A saturation radioligand binding experiment was performed in conjunction with each inhibition assay in order to determine both a KD and […] for hCSF-1 binding to c-fms expressed on the surface of AML-5 cells. Mixtures were set up in 96-well round-bottom microtiter plates with total volumes of 150 μl/well. All reagents were diluted in binding media containing 0.2% sodium azide and experiments were conducted at 4° C. to minimize potential receptor internalization and shedding.
as §2, §3

[3] = target: T2, cynomolgus monkey c-fms on primary bone marrow cells (cynomolgus monkey); test: cell-based or functional assay
[4] = target: T1, human c-fms, full length, on cells; test: cell-based or functional assay
[5] = target: T1, human c-fms, full length, on cells; test: inhibition of 125I-hCSF-1 binding to AML-5 cells, 4 C; competitor: 125I-hCSF-1
Protocol: as §4, §1

[6] = target: T3, monomeric human c-fms (residues 1-512)-pHis (human, UniProt P07333 20-512); test: Biacore (summary table)
T3 construct: Construct stated as residues 1-512; signal stated as amino acids 1-19 and left out; also called human c-fms (1-512).pHIS; monomeric c-fms
T3 sequence (P07333 20-512): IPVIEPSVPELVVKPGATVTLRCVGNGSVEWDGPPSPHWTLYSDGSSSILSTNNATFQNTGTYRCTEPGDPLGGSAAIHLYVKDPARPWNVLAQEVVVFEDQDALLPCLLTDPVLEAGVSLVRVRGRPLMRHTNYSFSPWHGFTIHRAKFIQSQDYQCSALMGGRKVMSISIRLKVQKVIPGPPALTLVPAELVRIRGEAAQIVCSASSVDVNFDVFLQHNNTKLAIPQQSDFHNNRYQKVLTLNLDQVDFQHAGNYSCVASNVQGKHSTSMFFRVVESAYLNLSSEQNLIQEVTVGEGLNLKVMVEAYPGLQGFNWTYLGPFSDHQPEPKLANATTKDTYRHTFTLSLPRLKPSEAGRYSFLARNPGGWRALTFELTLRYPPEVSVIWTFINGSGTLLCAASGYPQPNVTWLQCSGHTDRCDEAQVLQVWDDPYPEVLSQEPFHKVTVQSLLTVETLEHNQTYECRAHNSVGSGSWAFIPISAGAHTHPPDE
Protocol: (§5) Anti-c-fms 1.2 or 1.2 SM at 0.25 μg/ml was injected over goat anti-human IgG, Fcγ in one flow cell for 2 minutes at 10 μl/min to obtain a surface density of ˜47 RUs. Another flow cell with goat anti-human IgG, Fcγ alone was used as a reference surface. Each assay started with ten cycles of buffer as the analyte to stabilize the signal. […] Each complex was allowed to associate for 2 minutes, and dissociate for 5 minutes. The surfaces were regenerated after each c-fms or buffer injection with a 30-second pulse of 10 mM glycine HCl, pH 1.5 at 100 μl/min, followed by a 30-second injection of buffer.
(§6) Other anti-c-fms antibodies were tested in a similar manner, but changes were made to the protocol to account for differences in binding characteristics.
(§7) Data was double referenced by subtracting the reference surface responses to remove bulk refractive index changes, and then subtracting the averaged buffer blank response to remove systematic artifacts from the experimental flow cells.

[7] = target: T3, monomeric human c-fms (residues …); test: Biacore, monomeric c-fms
Protocol: (§8) The binding affinities of the somatic mutation corrected antibodies to monomeric c-fms protein were measured by surface plasmon resonance using a Biacore 3000 instrument.
(§9) The affinity of human c-fms (1-512). pHIS (Amgen) for the anti-c-fms mAbs was measured by Biacore. Experiments were conducted at 25° C. using a Biacore 3000 instrument (Biacore AB) equipped with a CM4 sensor chip. Sensor chips, amine coupling reagents (EDC (1-ethyl-3(3-dimethylaminopropyl)-carbodiimide hydrochloride), NHS (N-hydroxysuccinimide), and ethanolamine-HCl, pH 8.5), 10 mM sodium acetate, pH 5.5, HBS-EP (0.01 M HEPES pH 7.4, 0.15 M NaCl, 3 mM EDTA, 0.005% v/v Surfactant P20), and 10 mM glycine-HCl, pH 1.5 were purchased from Biacore AB. Bovine serum albumin (BSA, Bovuminar Standard Powder) was purchased from Serological Corporation. AffiniPure Goat Anti-Human IgG, Fcγ Fragment Specific was purchased from Jackson ImmunoResearch Laboratories.
as §6

[8] = target: T2, cynomolgus monkey c-fms on primary bone …; test: cell-based or functional assay; remark: listed apart in the source
[9] = target: T1, human c-fms, full length, on cells; test: cell-based or functional assay; remark: listed apart in the source
[10] = target: T1, human c-fms, full length, on cells; test: cell-based or functional assay; remark: listed apart in the source
[11] = target: T2, cynomolgus monkey c-fms on primary bone …; test: cell-based or functional assay; remark: listed apart in the source
[12] = target: T1, human c-fms, full length, on cells; test: cell-based or functional assay; remark: listed apart in the source
[13] = target: T3, monomeric human c-fms (residues …); test: Biacore 3000, 25 C; mAb captured on goat anti-human IgG Fc, monomeric c-fms(1-512)-pHis analyte, 1:1 fit
Protocol: as §5, §6, §7

[14] = target: T1, human c-fms, full length, on cells; test: inhibition of 125I-CSF-1 binding to AML-5 cells; competitor: 125I-CSF-1 (summary table)
Protocol: as §4, §2, §3

[15] = target: T3, monomeric human c-fms (residues …); test: SPR, Biacore 3000, monomeric c-fms; reference: parent 1.109
Protocol: as §8, §9, §6

[16] = target: T2, cynomolgus monkey c-fms on primary bone …; test: cell-based or functional assay; remark: listed apart in the source
[17] = target: T1, human c-fms, full length, on cells; test: cell-based or functional assay; remark: listed apart in the source
[18] = target: T3, monomeric human c-fms (residues …); test: Biacore, low resolution; hybridoma mAb captured on anti-human IgG, monomeric c-fms-pHis analyte at 125 nM
Protocol: Anti-human IgG was immobilized on all four flow cells of a sensor chip using amine coupling. Crude hybridoma samples were diluted into halves and captured on the anti-IgG surface. […] Sequence lineage analyses were also performed on the 29 hybridomas (see, FIG. 2).

[19] = target: T2, cynomolgus monkey c-fms on primary bone …; test: cell-based or functional assay; remark: listed apart in the source
[20] = target: T1, human c-fms, full length, on cells; test: cell-based or functional assay; remark: listed apart in the source
[21] = target: T3, monomeric human c-fms (residues …); test: SPR, Biacore 3000, monomeric c-fms; reference: parent 2.360
Protocol: as §8, §9, §6

Binder | Cynomolgus bone marrow bioassay IC50 [3] [pM] | Ki [5] [pM] | Kd [6] [pM] | Kd [7] [pM] | antibody concentration that prevented CSF-1-induced pTyr/c-fms, 293T/c-fms cells [10] [µg/ml] | Cynomolgus Bone Marrow Proliferation IC50 [11] [pM] | Kd [13] [pM] | koff [13] [s⁻¹] | kon [13] [M⁻¹ s⁻¹] | Ki [14] [pM] | Cynomolgus bone marrow bioassay IC50 [16] [pM] | AML-5 bioassay IC50 [17] [pM] | Human CD14+ monocytes bioassay IC50 [17] [pM] | Kd [18] [pM] | koff [18] [s⁻¹] | kon [18] [M⁻¹ s⁻¹] | Cynomolgus bone marrow bioassay IC50 [19] [ng/mL] | AML-5 bioassay IC50 [20] [ng/mL] | Human CD14+ monocytes bioassay IC50 [20] [ng/mL] | further results
B1 | – | – | – | – | – | – | – | – | – | – | – | – | – | – | – | – | – | – | – | Kd [1]: 46 pM; Ki [2]: 17.8 pM
B2 | 81 | 11.5 | 548 | 548 | ≥ 0.1 | 81 | 548 | 0.00199 | 3.62e+06 | 11.5 | – | – | – | – | – | – | – | – | – | AML-5 bioassay IC50 [4]: 12 pM; IC50 of 1.2 SM in the presence of hCSF-1, cynomolgus bone marrow monocytic cell proliferation, Average [8]: 32.7 pM; IC50 of 1.2 SM in the presence of hCSF-1, cynomolgus bone marrow monocytic cell proliferation, Expt. 1 [8]: 42.5 pM; IC50 of 1.2 SM in the presence of hCSF-1, cynomolgus bone marrow monocytic cell proliferation, Expt. 2 [8]: 26 pM; IC50 of 1.2 SM in the presence of hCSF-1, cynomolgus bone marrow monocytic cell proliferation, Expt. 3 [8]: 22.9 pM; IC50 of 1.2 SM in the presence of hCSF-1, human bone marrow monocytic cell proliferation, Average [9]: 15.5 pM; IC50 of 1.2 SM in the presence of hCSF-1, human bone marrow monocytic cell proliferation, Expt. 1 [9]: 15.5 pM; IC50 of 1.2 SM in the presence of hCSF-1, human bone marrow monocytic cell proliferation, Expt. 2 [9]: 20.1 pM; IC50 of 1.2 SM in the presence of hCSF-1, human bone marrow monocytic cell proliferation, Expt. 3 [9]: 10.9 pM; AML-5 proliferation IC50 [12]: 12 pM
B3 | 23 | 9.7 | 102 | 102 | ≥ 0.1 | 23 | 102 | 0.000271 | 2.66e+06 | 9.7 | – | – | – | – | – | – | – | – | – | fold loss of affinity against the parent antibody [15]: 2 fold
B4 | – | – | – | – | – | – | – | – | – | – | 167 | 40 | 67 | 4700 | 0.0014 | 300000 | 25 | 6 | 10 | –
B5 | – | ~900 | 1200 | 1200 | – | – | 1200 | 0.000955 | 794000 | ~900 | – | – | – | – | – | – | – | – | – | AML-5 proliferation assay, loss in potency relative to the parent IgG2 antibody [10]: 10 fold; fold loss of affinity against the parent antibody [21]: 2 fold
B6 | – | – | – | – | – | – | – | – | – | – | 53 | 27 | 67 | 5600 | 0.000338 | 60500 | 8 | 4 | 10 | –

Reference: patent US20090155164A1 (Amgen, published 2009)
